Experimental data published in publication PMC12455585.

Assays:
Assay in all cases: fluorescence anisotropy
Conditions in all cases: 50 mM HEPES-NaOH pH 7.2, 50 mM NaCl (50-250 mM in salt series), 20 or 50 nM DNA, 60 min, 25 C
[1] = tested on: OBMg R122A (Moorella glycerini)
[2] = tested on: OBMg R112A (Moorella glycerini)
[3] = tested on: OBMg R150A (Moorella glycerini)
[4] = tested on: OBMg R188A (Moorella glycerini)
[5] = tested on: OBMg (ComEC OB fold) WT (Moorella glycerini)
[6] = tested on: OBMg K192A (Moorella glycerini)
[7] = tested on: OBMg R175A (Moorella glycerini)
[8] = tested on: OBMg R115A (Moorella glycerini)

| Sequence | binding signal (fold Kd increase vs WT) [1] | binding signal (fold Kd increase vs WT) [2] | binding signal (fold Kd increase vs WT) [3] | binding signal (fold Kd increase vs WT) [4] | Kd [5] [nM] | binding signal (fold Kd increase vs WT) [6] | binding signal (fold Kd increase vs WT) [7] | binding signal (fold Kd increase vs WT) [8] |
| --- | --- | --- | --- | --- | --- | --- | --- | --- |
| GTTCGCAACGAA (double strand) [12 bp dsDNA] | > 2 | > 2 | > 2 | > 2 | 330 | > 2 | > 2 | > 2 |
| GTTCGCAACGAA [12-mer ssDNA] |  |  |  |  | 790 |  |  |  |
